Test results published in the supplement of paper PMC10126150.
± gives the standard deviation of the averaged measurements.

test system: ATP; test: switch fluorescence ratio, 500 uM ATP over buffer (Cy3 cluster intensity, sum of 5 cycles each) (fold (ratio)); higher = stronger signal-on switching upon ATP binding; sequences stand for … in TCGTCGGCAGCGTCAGATGTGTATAAGAGACAGTTTTTTTTTTTTTTTTTTTTTTTTT…TC; conditions: aptamer strand: ATP DNA aptamer (quencher-CACCTGGGGGAGTATTGCGGAGGAAGG + anchor), 100 nM annealed; ATP concentration: 500 uM
Method in brief: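 Imaging in selection buffer was followed by imaging after 15 min with 500 uM ATP at 22 °C, for Cy3-labelled switching-strand clusters annealed to 100 nM quencher-labelled ATP aptamer on a modified Illumina MiSeq flow-cell. Five of these buffer/ATP cycles ran, separated by NaOH stripping and re-annealing. The fluorescence ratio per cluster is summed target-cycle over summed buffer-cycle Cy3 intensity, averaged per switch-domain sequence; clusters outside 100-1000 RFU were removed.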
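Note: ATP exposure 15 min at 22 °C before imaging.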

Point of comparison: AACAATGGGG, switch fluorescence ratio 1.03 ± 0.077. Against it:
- AAATTCGGTG — within error, 0.999 ± 0.016
- AAATTGAGGC — within error, 0.96 ± 0.027
- AAATTGCCTG — within error, 1.01 ± 0.047
- AAATTGCTGC — within error, 1.01 ± 0.036
- AAATTGGACT — within error, 1.02 ± 0.033
- AAATTGGGCA — within error, 0.997 ± 0.029
- AAATTGGGGA — within error, 0.986 ± 0.014
- AAATTGGTAA — within error, 1 ± 0.017
- AAATTTAGCA — within error, 0.99 ± 0.052
- AAATTTGGCT — within error, 0.992 ± 0.071
- AAATTTTTGG — within error, 1.01 ± 0.045
- AACAAACCGT — within error, 1.1 ± 0.017
- AACAAGGGCT — within error, 1.04 ± 0.014
- AACAATGAAG — the same, 1.03 ± 0.022
- AACACATGCG — within error, 0.9936 ± 0.0015
- AACACCAGGT — within error, 1.38 ± 0.45
- AACACCTAGG — within error, 1.02 ± 0.028
- AACACGAATT — within error, 0.998 ± 0.025
- AACAGAAGAG — within error, 1.007 ± 0.01
- AACAGATTTT — within error, 0.998 ± 0.011
- AACAGCAGGC — higher, 1.16 ± 0.013
- AACAGCTGTT — within error, 0.972 ± 0.035
- AACAGGCTGG — within error, 1.01 ± 0.013
- AACAGGGAGG — within error, 0.993 ± 0.032
- AACAGTACAC — higher, 1.22 ± 0.023
- AACATGCTTA — within error, 0.972 ± 0.02
- AACATGTCTC — within error, 1.01 ± 0.043
- AACATTAAAT — within error, 1.1 ± 0.1
- AACCAGCGGA — within error, 0.994 ± 0.019
- AACCATTGCT — within error, 1.048 ± 0.0053
- AACCCCGGGG — within error, 1.02 ± 0.067
- AACCCGGGAA — within error, 0.995 ± 0.042
- AACCGCGGTG — within error, 0.984 ± 0.011
- AACCGCTTGG — within error, 0.995 ± 0.056
- AACCGGATTC — within error, 1 ± 0.02
- AACCGGGGGT — within error, 0.991 ± 0.038
- AACCTACGGC — higher, 1.38 ± 0.083
- AACCTATTCT — within error, 1.15 ± 0.17
- AACCTTTATA — within error, 1.01 ± 0.012
- AACCTTTCTT — higher, 1.46 ± 0.041
- AACGAAAGGG — the same, 1.03 ± 0.074
- AACGACACAT — higher, 1.46 ± 0.014
- AACGACGACG — higher, 1.16 ± 0.05
- AACGATGAAG — within error, 1.01 ± 0.043
- AACGATTTAT — within error, 0.9936 ± 0.0068
- AACGCCGGCC — within error, 1.01 ± 0.057
- AACGGCCCTG — the same, 1.03 ± 0.026
- AACGGCTA — within error, 1.047 ± 0.0045
- AACGGCTTCA — within error, 1.057 ± 0.0029
- AACGGGCCAC — within error, 1.079 ± 0.0077
- AACGGGGACT — within error, 1.05 ± 0.063
- AACGGGGGAG — within error, 0.979 ± 0.021
- AACGGGGTTA — within error, 1.04 ± 0.06
- AACGGGTGAG — within error, 0.9856 ± 0.0092
- AACGGTCAAA — within error, 1.02 ± 0.028
- AACGGTTAAA — within error, 1.011 ± 0.0022
- AACGTAGTTT — within error, 1.02 ± 0.029
- AACGTCTTTT — within error, 0.9826 ± 0.0038
- AACGTGGCGT — within error, 1.023 ± 0.0066
- AACGTGTTGG — within error, 1.013 ± 0.0015
- AACGTTAGGT — within error, 0.9704 ± 0.0022
- AACGTTGGAC — within error, 1.1 ± 0.029
- AACGTTGGGC — the same, 1.03 ± 0.059
- AACGTTGGTT — within error, 1.01 ± 0.012
- AACGTTGTTG — within error, 0.976 ± 0.044
- AACTAAGGGA — within error, 0.9949 ± 0.0068
- AACTAAGTGG — within error, 0.967 ± 0.017
- AACTACTGTG — the same, 1.03 ± 0.056
- AACTAGACCT — higher, 1.42 ± 0.019
- AACTAGGTCG — within error, 0.974 ± 0.058
- AACTATAAGA — within error, 1.06 ± 0.1
- AACTATGAAC — the same, 1.03 ± 0.029
- AACTATTAGA — within error, 0.952 ± 0.018
- AACTCAGGCG — within error, 1.039 ± 0.0066
- AACTCCACGA — within error, 1.26 ± 0.32
- AACTCCAGGT — higher, 1.2 ± 0.011
- AACTCGGTCC — within error, 1 ± 0.061
- AACTCGGTCG — within error, 1.04 ± 0.051
- AACTCTCGGG — within error, 1 ± 0.014
- AACTCTGGTT — within error, 0.968 ± 0.048
- AACTCTGTCT — within error, 1 ± 0.032
- AACTGAGGGA — within error, 1.022 ± 0.0069
- AACTGCTATC — higher, 1.22 ± 0.036
- AACTGGAACT — the same, 1.03 ± 0.032
- AACTGTTGG — within error, 0.9895 ± 0.006
- AACTTAAGGG — within error, 1.003 ± 0.0092
- AACTTAATG — within error, 0.9926 ± 0.0025
- AACTTACACG — higher, 1.2 ± 0.018
- AACTTATCGG — within error, 1.01 ± 0.036
- AACTTGGGGG — within error, 1.021 ± 0.0048
- AACTTGTGTG — within error, 0.989 ± 0.042
- AACTTTGGGG — within error, 1.01 ± 0.068
- AAGAAAGGCT — within error, 0.982 ± 0.033
- AAGAAAGTCT — within error, 0.995 ± 0.068
- AAGAAATGTA — within error, 1.013 ± 0.0063
- AAGAAATTGG — lower, 0.9446 ± 0.0027
- AAGAACGGTA — within error, 1.06 ± 0.043
- AAGAAGAGGG — within error, 1.02 ± 0.021
- AAGAAGGGAA — within error, 1.004 ± 0.0068
- AAGAAGTTGG — within error, 0.985 ± 0.038
- AAGAATATAT — within error, 0.991 ± 0.018
- AAGAATCTGC — within error, 0.985 ± 0.051
- AAGAATGTG — lower, 0.9474 ± 0.0022
- AAGAATTTTT — within error, 1 ± 0.023
- AAGACAGGCC — the same, 1.03 ± 0.014
- AAGACGAATT — within error, 1.01 ± 0.058
- AAGACGTGGA — within error, 0.9993 ± 0.0064
- AAGACGTGGT — within error, 0.992 ± 0.008
- AAGACTGAGC — the same, 1.033 ± 0.0071
- AAGACTTAT — within error, 1.01 ± 0.053
- AAGACTTTGT — within error, 1 ± 0.024
- AAGAGAAGTT — within error, 0.9938 ± 0.0088
- AAGAGAATGG — within error, 0.984 ± 0.052
- AAGAGACAGA — higher, 1.25 ± 0.066
- AAGAGAGTTT — within error, 0.9837 ± 0.00066
- AAGAGCCAAA — within error, 0.9735 ± 0.0097
- AAGAGCGGAC — within error, 1.11 ± 0.047
- AAGAGCGGGG — within error, 0.989 ± 0.043
- AAGAGGACGC — within error, 1 ± 0.066
- AAGAGGCGGT — within error, 1.01 ± 0.022
- AAGAGGGCGT — within error, 1.012 ± 0.0064
- AAGAGGGGG — within error, 0.977 ± 0.026
- AAGAGGTCG — within error, 1.02 ± 0.046
- AAGAGGTGCA — within error, 0.989 ± 0.034
- AAGAGGTTAC — within error, 0.973 ± 0.049
- AAGAGTCTT — within error, 0.963 ± 0.042
- AAGAGTGGGG — within error, 1.02 ± 0.049
- AAGAGTTCTG — within error, 1 ± 0.011
- AAGAGTTGAC — within error, 0.947 ± 0.059
- AAGATAACCT — higher, 1.87 ± 0.23
- AAGATACGCT — within error, 1.06 ± 0.065
- AAGATATCTG — within error, 1.01 ± 0.032
- AAGATCATGG — within error, 0.98235 ± 0.00028
- AAGATCCGCT — within error, 1.13 ± 0.027
- AAGATGACTA — within error, 0.986 ± 0.042
- AAGATGGGGC — within error, 0.998 ± 0.038
- AAGATGGGGG — within error, 0.998 ± 0.033
- AAGATGGTTA — within error, 0.97 ± 0.01
- AAGATGTTTT — within error, 1.01 ± 0.04
- AAGATTAGTC — within error, 0.974 ± 0.041
- AAGATTGTCG — within error, 1.14 ± 0.039
- AAGATTGTGT — within error, 0.9849 ± 0.0017
- AAGATTTTGA — within error, 0.936 ± 0.063
- AAGATTTTTG — within error, 1.01 ± 0.041
- AAGCAAAGGT — within error, 1.02 ± 0.027
- AAGCAAGGGA — within error, 1.065 ± 0.01
- AAGCAGATAG — higher, 1.46 ± 0.048
- AAGCAGTCGA — within error, 1.09 ± 0.015
- AAGCATCACG — within error, 1.07 ± 0.011
- AAGCCCTACA — within error, 1.01 ± 0.03
- AAGCCGATTC — the same, 1.03 ± 0.0068
- AAGCCGGATG — within error, 1.005 ± 0.0095
